# Results: the supplement of paper PMC10126150
# ± gives the standard deviation of the averaged measurements.
# System: ATP
# Experiment: switch fluorescence ratio, 500 uM ATP over buffer (Cy3 cluster intensity, sum of 5 cycles each) (fold (ratio)); higher = stronger signal-on switching upon ATP binding; sequences stand for … in TCGTCGGCAGCGTCAGATGTGTATAAGAGACAGTTTTTTTTTTTTTTTTTTTTTTTTT…TC
# Conditions: aptamer strand: ATP DNA aptamer (quencher-CACCTGGGGGAGTATTGCGGAGGAAGG + anchor), 100 nM annealed; ATP concentration: 500 uM
# Procedure, shortened: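 After annealing to 100 nM quencher-labelled ATP aptamer, Cy3-labelled switching-strand clusters on a modified Illumina MiSeq flow-cell were imaged in selection buffer. A second image followed after 15 min with 500 uM ATP at 22 °C, and five such buffer/ATP cycles were done, each separated by NaOH stripping and re-annealing. The fluorescence ratio, averaged per switch-domain sequence, is summed target-cycle over summed buffer-cycle Cy3 intensity per cluster, with clusters outside 100-1000 RFU excluded.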
# 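Further: ATP exposure 15 min at 22 °C before imaging.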
row,Sequence,switch fluorescence ratio
1,GGATGCAGTT,0.99 ± 0.026
2,GGATGCCGGG,1 ± 0.043
3,GGATGCCTTT,0.977 ± 0.026
4,GGATGCGGGA,0.98 ± 0.028
5,GGATGCTTTC,1.02 ± 0.026
6,GGATGGAAAG,0.999 ± 0.015
7,GGATGGATTG,1.004 ± 0.0022
8,GGATGGCTCG,0.993 ± 0.051
9,GGATGGGGAA,0.998 ± 0.024
10,GGATGGGGCA,1 ± 0.023
11,GGATGGGGCC,0.995 ± 0.032
12,GGATGGGGCG,0.995 ± 0.027
13,GGATGGTAGT,1.01 ± 0.071
14,GGATGGTGTT,0.958 ± 0.026
15,GGATGTGGGT,1.011 ± 0.0037
16,GGATTAAGGG,0.993 ± 0.024
17,GGATTAATCT,0.998 ± 0.019
18,GGATTACGAC,1.12 ± 0.15
19,GGATTACGGT,1.01 ± 0.03
20,GGATTAGCGA,0.975 ± 0.025
21,GGATTAGGTC,1.02 ± 0.019
22,GGATTAGTTT,0.994 ± 0.029
23,GGATTATGGA,0.971 ± 0.025
24,GGATTATTTT,1 ± 0.012
25,GGATTCAGGG,1.01 ± 0.018

row,Sequence,switch fluorescence ratio
1,GGATTGAAGA,0.969 ± 0.091
2,GGATTGGAGT,0.977 ± 0.02
3,GGATTGGGGG,0.995 ± 0.02
4,GGATTGGGTG,1.04 ± 0.09
5,GGATTGGTGG,1.01 ± 0.024
6,GGATTTACGG,1.001 ± 0.0028
7,GGATTTAGTA,1.01 ± 0.034
8,GGATTTATGA,1.002 ± 0.0092
9,GGATTTATGT,0.94526 ± 0.00032
10,GGATTTGCCT,0.997 ± 0.041
11,GGATTTGGCG,0.985 ± 0.029
12,GGATTTGTGT,1.01 ± 0.034
13,GGATTTTATA,1.01 ± 0.024
14,GGATTTTTTC,1.02 ± 0.037
15,GGCAAAGGTA,0.968 ± 0.014
16,GGCAATAATA,1.09 ± 0.035
17,GGCACAGATT,1.01 ± 0.019
18,GGCACCACCT,1.157 ± 0.0082
19,GGCACGGGGC,1.02 ± 0.024
20,GGCACTAAGT,1.04 ± 0.036
21,GGCAGAGTTC,0.991 ± 0.013
22,GGCAGCCGGG,0.97 ± 0.018
23,GGCAGCCGGT,1 ± 0.036
24,GGCAGCTGGG,0.946 ± 0.023
25,GGCAGCTGGT,1.01 ± 0.03

row,Sequence,switch fluorescence ratio
1,GGCAGTAGTG,1.002 ± 0.0037
2,GGCATACCGG,0.936 ± 0.019
3,GGCATAGAGG,1.03 ± 0.0032
4,GGCATATGCT,1.02 ± 0.025
5,GGCATCAGGG,1.02 ± 0.013
6,GGCATCGGAC,1.04 ± 0.015
7,GGCATGCCGG,1.014 ± 0.0089
8,GGCATGTTTG,0.9917 ± 0.0027
9,GGCATTATTT,1.02 ± 0.023
10,GGCATTCATT,0.989 ± 0.033
11,GGCATTGGCA,0.995 ± 0.041
12,GGCATTTGGT,0.993 ± 0.025
13,GGCATTTGTA,1 ± 0.02
14,GGCCAGCGGA,1.01 ± 0.024
15,GGCCATACGT,1.09 ± 0.094
16,GGCCCAGGAG,1.01 ± 0.017
17,GGCCCAGTAG,1.14 ± 0.062
18,GGCCCCGGGG,1.11 ± 0.069
19,GGCCGATTGT,0.962 ± 0.024
20,GGCCGGAGAC,1.15 ± 0.041
21,GGCCGGATGG,0.991 ± 0.011
22,GGCCGGCGTG,0.969 ± 0.031
23,GGCCGGTGTA,1.03 ± 0.013
24,GGCCGTTTTC,1.01 ± 0.00017
25,GGCCTAAATT,0.989 ± 0.031

row,Sequence,switch fluorescence ratio
1,GGCCTAGTTT,0.9799 ± 0.0073
2,GGCCTATCAC,1.016 ± 0.0078
3,GGCCTATTCC,1.04 ± 0.011
4,GGCCTCATGC,1.02 ± 0.017
5,GGCCTCGGGG,1.01 ± 0.05
6,GGCCTCTTGG,1 ± 0.011
7,GGCGAAAGAG,1.02 ± 0.049
8,GGCGACGGGG,1 ± 0.02
9,GGCGACTAAA,1.07 ± 0.057
10,GGCGATCATA,0.984 ± 0.024
11,GGCGATTTTT,1.013 ± 0.0022
12,GGCGCAATTG,2.04 ± 0.23
13,GGCGCGAGAG,1.032 ± 0.0092
14,GGCGCGCATT,1.02 ± 0.018
15,GGCGCGGGGA,1.02 ± 0.045
16,GGCGCTCACA,1.04 ± 0.028
17,GGCGCTTTGT,0.979 ± 0.02
18,GGCGGCGGGA,0.998 ± 0.027
19,GGCGGCGTCT,0.998 ± 0.036
20,GGCGGCTACG,1.003 ± 0.0035
21,GGCGGGGACG,0.999 ± 0.022
22,GGCGGGGGGC,0.986 ± 0.026
23,GGCGGGTATG,1.0223 ± 0.00097
24,GGCGGTACGG,1.01 ± 0.0066
25,GGCGGTGGCG,0.994 ± 0.1

row,Sequence,switch fluorescence ratio
1,GGCGGTGGGT,0.999 ± 0.038
2,GGCGGTTTGA,0.969 ± 0.014
3,GGCGTAATTG,1 ± 0.032
4,GGCGTAGGGG,1.02 ± 0.038
5,GGCGTCGTAT,0.9961 ± 0.0015
6,GGCGTGGGGG,1.051 ± 0.01
7,GGCGTGTCAG,0.951 ± 0.039
8,GGCGTTTGCT,0.9827 ± 0.0086
9,GGCTAAGAGT,0.991 ± 0.02
10,GGCTACGGAA,2.32 ± 0.022
11,GGCTACGGCG,0.993 ± 0.016
12,GGCTACTTTA,1.07 ± 0.039
13,GGCTAGAGCT,0.982 ± 0.032
14,GGCTATCAAA,1.01 ± 0.018
15,GGCTCATTGG,0.969 ± 0.025
16,GGCTCGGGAC,1.01 ± 0.039
17,GGCTCGTAGG,1 ± 0.024
18,GGCTGCACGG,1.013 ± 0.01
19,GGCTGCAGCT,0.992 ± 0.016
20,GGCTGCCAGT,0.9909 ± 0.0016
21,GGCTGGATCT,0.975 ± 0.027
22,GGCTGGCACA,1.002 ± 0.0085
23,GGCTGGCAGC,1 ± 0.016
24,GGCTGGCAGT,0.988 ± 0.015
25,GGCTGGCGGG,0.99 ± 0.044

row,Sequence,switch fluorescence ratio
1,GGCTGGGGGA,1.01 ± 0.024
2,GGCTGGGTTA,1 ± 0.026
3,GGCTGTACAC,1.0831 ± 0.001
4,GGCTGTGAAC,1.02 ± 0.023
5,GGCTGTTGGG,0.978 ± 0.012
6,GGCTTAAGGT,1.02 ± 0.064
7,GGCTTACTAT,1.01 ± 0.02
8,GGCTTAGAAT,0.97374 ± 0.00014
9,GGCTTAGGTG,1.26 ± 0.06
10,GGCTTATGTG,1.02 ± 0.051
11,GGCTTCCCTG,1.19 ± 0.025
12,GGCTTGAAGC,0.986 ± 0.018
13,GGCTTGAGGG,0.942 ± 0.033
14,GGCTTGCAAC,1.03 ± 0.012
15,GGCTTGTGTA,0.965 ± 0.015
16,GGCTTTCATT,0.983 ± 0.013
17,GGCTTTGAGT,0.9873 ± 0.0066
18,GGCTTTTAAC,0.9827 ± 0.0013
19,GGGAAAAAAT,1 ± 0.035
20,GGGAAAAATC,2.06 ± 1.5
21,GGGAAAACGC,1.02 ± 0.015
22,GGGAAAACTA,1 ± 0.028
23,GGGAAAATTT,1.07 ± 0.059
24,GGGAAACCAC,1.04 ± 0.02
25,GGGAAACGAG,1.04 ± 0.019

row,Sequence,switch fluorescence ratio
1,GGGAAAGATA,0.988 ± 0.021
2,GGGAAAGCGC,1.03 ± 0.064
3,GGGAAAGCTG,0.956 ± 0.096
4,GGGAAAGGTG,1.54 ± 0.11
5,GGGAAATTGA,1.01 ± 0.031
6,GGGAAATTTG,0.991 ± 0.026
7,GGGAACACGA,1.01 ± 0.018
8,GGGAAGAACC,1.02 ± 0.013
9,GGGAAGACCG,0.9921 ± 0.004
10,GGGAAGAGGT,0.988 ± 0.027
11,GGGAAGGAAG,1.04 ± 0.04
12,GGGAAGGAGG,1.02 ± 0.013
13,GGGAAGTCAG,1.002 ± 0.0098
14,GGGAATCATG,0.971 ± 0.044
15,GGGAATCATT,0.948 ± 0.034
16,GGGAATCCTT,1.03 ± 0.0018
17,GGGAATCGGC,1 ± 0.032
18,GGGAATCGGG,1 ± 0.019
19,GGGAATGGAA,0.995 ± 0.014
20,GGGAATGGTC,1.01 ± 0.043
21,GGGAATGTAA,0.973 ± 0.036
22,GGGAATTAAG,0.989 ± 0.032
23,GGGAATTAAT,1.04 ± 0.023
24,GGGAATTTTA,1.01 ± 0.012
25,GGGACAAACC,1.02 ± 0.019

row,Sequence,switch fluorescence ratio
1,GGGACACGGT,0.987 ± 0.023
2,GGGACATTCA,1.03 ± 0.023
3,GGGACCCAGC,0.992 ± 0.039
4,GGGACCTGCT,0.951 ± 0.02
5,GGGACGTGTG,1.007 ± 0.0068
6,GGGACTTTGG,0.972 ± 0.018
7,GGGAGAAAGT,0.9995 ± 0.0034
8,GGGAGAATTA,1.037 ± 0.0022
9,GGGAGATATT,0.985 ± 0.0099
10,GGGAGATTGG,1.09 ± 0.12
11,GGGAGCACTA,1.09 ± 0.017
12,GGGAGCCCTC,0.9958 ± 0.0055
13,GGGAGCGCGT,1.02 ± 0.056
14,GGGAGCTAGG,0.9709 ± 0.0038
15,GGGAGGAAGA,1.01 ± 0.03
16,GGGAGGCCAT,0.9683 ± 0.0076
17,GGGAGGCTTC,1 ± 0.021
18,GGGAGGGAAG,1.03 ± 0.031
19,GGGAGGGACC,1.01 ± 0.011
20,GGGAGGGAGC,1.02 ± 0.06
21,GGGAGGGCAT,1 ± 0.027
22,GGGAGGGGCA,0.971 ± 0.012
23,GGGAGGGTAT,1.01 ± 0.036
24,GGGAGGGTGG,0.996 ± 0.06
25,GGGAGGTTCT,0.974 ± 0.033
